Data on 6 proteins can be found in publication PMC1282572, “Avidin related protein 2 shows unique structural and functional features among the avidin protein family” (BMC Biotechnology, 2005).

This data set deals with the molecule itself. Kind of data set: SEC; FPLC gel filtration, Superdex HR 10/30 column, 50 mM NaCO3 (pH 11.0), 150 mM NaCl; calibrated with IgG, BSA and ovalbumin; oligomeric state (tetramer).

B1: AVR4 (carries C122S), produced in insect cells (natural protein, chicken, UniProt P56734 25-150, looked up)
chain: ARKCSLTGKWTNNLGSIMTIRAVNSRGEFTGTYLTAVADNPGNITLSPLLGIQHKRASQPTFGFTVHWNFSESTTVFTGQCFIDRNGKEVLKTMWLLRSSVNDISYDWKATRVGYNNFTRLSTVEE
notes: avidin related protein 4 (identical to AVR5), chicken, with C122S; also called AVR5 (AVR4 is identical to AVR5)
What is called stoichiometry N is a count of units in the complex or per binding partner. Take B1: the “stoichiometry N” value came out at 4.

B2: AVR4(K109I) (also carries C122S), produced in insect cells (natural protein, chicken, UniProt P56734 25-150, looked up)
chain: ARKCSLTGKWTNNLGSIMTIRAVNSRGEFTGTYLTAVADNPGNITLSPLLGIQHKRASQPTFGFTVHWNFSESTTVFTGQCFIDRNGKEVLKTMWLLRSSVNDISYDWIATRVGYNNFTRLSTVEE
notes: avidin related protein 4 (identical to AVR5), chicken, with K109I and C122S; An E. coli form, AVR4(K109I)-b, was also made
Turning to B2, the “stoichiometry N” value was determined as 4.

B3: AVR6(C58S), produced in E. coli (natural protein, chicken)
chain: QTVARKCSLTGEWDNNLGSIMTIGAVNDNGEFNGTYITAVADNPGNIKLSPLLGIQHKRASQPTFGFTVHWNFSESTSVFVGQCFVDRSGKEVLKTKWLQRLAVDDISDDWKATRVGYNNFTRQRTVEE
notes: checked by ESI-MS on AVR2-b only; avidin related protein 6 (AVR6), chicken, with C58S; also called AVR6-b
Consider B3, for which the “stoichiometry N” value was 4.

B4: AVR2-b (AVR2 produced in E. coli) (natural protein, chicken)
chain: QTVARKCSLTGEWDNDLGSIMTIGAVNDNGEFDGTYITAVADNPGNITLSPLLGIQHKRASQPTFGFTVHWNFSESTSVFVGQCFVDRSGKEVLKTKWLQRLAVDDISDDWIATRVGNNDFTRQHTVEE
notes: three additional residues left at the N-terminus after cleavage of the bacterial OmpA signal peptide; avidin related protein 2 (AVR2), chicken; expected Mr of the product 14307.8 Da; Not glycosylated (bacterial expression); Crystallised in complex with D-biotin
Take B4: the “stoichiometry N” value was determined as 4.

B5: Avidin related protein 2 (AVR2), produced in insect cells (natural protein, chicken, UniProt P56732 25-150, looked up)
chain: ARKCSLTGEWDNDLGSIMTIGAVNDNGEFDGTYITAVADNPGNITLSPLLGIQHKRASQPTFGFTVHWNFSESTSVFVGQCFVDRSGKEVLKTKWLQRLAVDDISDDWIATRVGNNDFTRQHTVEE
modifications: glycosylated (two potential glycosylation sites; both utilized to some extent)
notes: avidin related protein 2 (AVR2), chicken; The crystal structure PDB 1WBI is of the E. coli form AVR2-b
Take B5: the “stoichiometry N” value amounted to 4.

B6: AVR2(I109K) (natural protein, chicken, UniProt P56732 25-150, looked up)
chain: ARKCSLTGEWDNDLGSIMTIGAVNDNGEFDGTYITAVADNPGNITLSPLLGIQHKRASQPTFGFTVHWNFSESTSVFVGQCFVDRSGKEVLKTKWLQRLAVDDISDDWKATRVGNNDFTRQHTVEE
notes: avidin related protein 2 (AVR2), chicken, with I109K
With B6, the “stoichiometry N” value worked out at 4.
